In JP2006523083A (dated 2006):

Columns and labels:
[1] = biological target: ビオチン化EpoR(Abbott CHO細胞由来 ref.#RB69084:4) (UniProt P19235); experiment: immunofluorescence microscopy on EpoR-coated sheep red cells, MAB307 plus Alexa488 anti-mouse IgG Fc
[2] = biological target: ヒトエリスロポエチン受容体(UT-7/Epo細胞・F36E細胞上) (human), P19235; experiment: cell-based or functional assay
[3] = biological target: T1, 全長組換えヒトEPO受容体(CHO細胞に発現) (human, UniProt P19235 25-508); experiment: competition with 125I-EPO on CHO cells expressing full-length human EPO receptor
T1 construct: whole, on cells; also called 組換えEPO受容体を発現するCHO細胞; エリスロポエチン受容体
T1 sequence (looked up): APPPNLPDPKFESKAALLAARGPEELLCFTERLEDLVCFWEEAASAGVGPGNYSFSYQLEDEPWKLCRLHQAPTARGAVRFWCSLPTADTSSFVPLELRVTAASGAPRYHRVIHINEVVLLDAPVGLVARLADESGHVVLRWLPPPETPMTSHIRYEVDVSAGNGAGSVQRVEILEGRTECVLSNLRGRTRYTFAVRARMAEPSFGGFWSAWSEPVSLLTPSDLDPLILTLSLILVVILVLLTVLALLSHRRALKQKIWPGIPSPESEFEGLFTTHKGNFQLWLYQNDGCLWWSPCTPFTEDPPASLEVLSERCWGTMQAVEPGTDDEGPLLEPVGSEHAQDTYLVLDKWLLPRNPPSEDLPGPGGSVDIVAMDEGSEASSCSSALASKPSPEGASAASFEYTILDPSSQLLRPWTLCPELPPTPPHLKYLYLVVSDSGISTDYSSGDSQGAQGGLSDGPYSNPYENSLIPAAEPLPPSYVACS

[4] = biological target: T2, ペプチドSE−3 (human); experiment: ELISA on plate-coated SE-3 peptide (5 μg/ml), anti-human IgG (Fc)-HRP
T2 construct: also called SE-3; SE-3ペプチド
T2 peptide: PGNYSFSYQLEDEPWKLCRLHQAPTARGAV

[5] = biological target: T3, 可溶性EPO受容体(sEPOR)(R&D Systems Cat.#307-ER/LF) (human, UniProt P19235 25-250); experiment: BIAcore (antibody immobilised, soluble human EPO receptor injected), as paragraph 65 attributes it; values not given
T3 construct: extracellular domain; The ELISA paragraph names only 'soluble EPO receptor' with the catalogue number; also called sEPOR; 固相化エリスロポエチン受容体
T3 sequence (looked up): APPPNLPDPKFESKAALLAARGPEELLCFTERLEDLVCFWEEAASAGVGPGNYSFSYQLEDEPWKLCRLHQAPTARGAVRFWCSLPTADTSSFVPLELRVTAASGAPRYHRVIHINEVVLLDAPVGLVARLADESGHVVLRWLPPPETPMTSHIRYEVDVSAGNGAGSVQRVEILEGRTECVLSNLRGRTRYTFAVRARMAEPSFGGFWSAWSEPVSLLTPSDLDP

マウス抗EpoR抗体(R&D Systems Cat.# MAB307) (antibody)
immunofluorescence score (0-4 scale) [1]: 4 of 4

B1: Ab12 (antibody, V domains shown)
VH: QVQLQESGPGLVKPSETLSLTCTVSGASISSYYWSWIRQPPGKGLEWIGYIYYSGSTNYNPSLKSRVTISVDTSKNQFSLKLRSVTAADTAVYYCARERLGIGDYWGQGTLVTVSS
VL: DIQLTQSPSSLSASVGDRVTITCRASQGIRNDLGWYQQKPGKAPKRLIYAASSLQSGVPSRFSGSGSGTEFTLTISSLQPEDFATYYCLQHNTYPPTFGQGTKVEIK
notes: Human antibody (XenoMouse XG2); also called AB-ABT2-XG2-012; ABT2-XG2-012
F36E細胞の増殖:EPO対照との最大応答の差(モル当量基準) [2]: 10 倍
binding result [3]: binds
binding result [4]: no binding (tested: 5 μg/ml Ab12)
binding result [5]: binds

B2: Ab198 (antibody, V domains shown)
VH: QVQLVESGGGVVQPGRSLRLSCVASGFTFSSYGMHWVRQAPGKGLEWVAVISYDGSNKYYADSVKGRFTISRDNSKNTLYLQMNSLRVEDTAVYYCARDHGGRYVYDYGMDVWGQGTTVTVSS
VL: DIQMTQSPSSVSASIGDRVSITCRASQGISSWLAWYQQKPGKAPTLLIYAASTLQRGVPSRFSGSGSGTDFTLTISSLQPEDFATYFCQQANSFPFTFGPGTKVDIK
notes: These were not used; also called AB-ABT2-XG2-198; ABT2-XG2-198
binding result [3]: binds
binding result [5]: binds
